Results on 62 sequences are retold here after the supplement of paper PMC9112550, “Optimization of the antimicrobial peptide Bac7 by deep mutational scanning” (BMC Biology, 2022).

The test system of the data set is Escherichia coli TOP10. Kind of data set: shrunken log2 fold change of peptide-encoding DNA abundance (4.5 h post-induction vs induction); higher = less antimicrobial activity (less host growth inhibition). The conditions noted are these: time post-induction: 4.5 h; library: site-saturation at positions 5, 18, 19, 20.
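Also: peptides expressed intracellularly from a pBAD plasmid library in pooled LB shake-flask culture, induced with 0.3% L-arabinose, DNA abundance read by NGS, three biological replicates, DESeq2 with apeglm shrinkage.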

As to RRIRMRPPRLPRPRPRPFGEPRP, the “shrunken log2 fold change” value worked out at 0.0461.

In the case of RRIRTRPPRLPRPRPRPVVSPRP, the “shrunken log2 fold change” value was 0.075.

In the case of RRIRLRPPRLPRPRPRPNFRPRP, the “shrunken log2 fold change” value was -0.195.

With RRIRSRPPRLPRPRPRPHSYPRP, the “shrunken log2 fold change” value was -0.171.

For RRIRGRPPRLPRPRPRPHHMPRP, the “shrunken log2 fold change” value is -0.219.

On to RRIRWRPPRLPRPRPRPYCHPRP, for which the “shrunken log2 fold change” value is -0.437.

As for RRIRGRPPRLPRPRPRPYFHPRP, the “shrunken log2 fold change” value is -0.462.

As to RRIRERPPRLPRPRPRPDADPRP, the “shrunken log2 fold change” value amounted to 0.0155.

Take RRIRARPPRLPRPRPRPIQMPRP: the “shrunken log2 fold change” value is 0.0579.

As for RRIRARPPRLPRPRPRPKGVPRP, the “shrunken log2 fold change” value is 0.15.

For RRIRWRPPRLPRPRPRPCDPPRP, the “shrunken log2 fold change” value was found to be 0.0863.

As to RRIRKRPPRLPRPRPRPCAEPRP, the “shrunken log2 fold change” value is 0.951.

Take RRIRDRPPRLPRPRPRPFNNPRP: the “shrunken log2 fold change” value was -0.226.

As for RRIRIRPPRLPRPRPRPYMQPRP, the “shrunken log2 fold change” value was -0.695.

With RRIRCRPPRLPRPRPRPMFNPRP, the “shrunken log2 fold change” value is -0.848.

Take RRIRFRPPRLPRPRPRPFGPPRP: the “shrunken log2 fold change” value is -0.159.

In the case of RRIRLRPPRLPRPRPRPDRKPRP, the “shrunken log2 fold change” value was -0.0365.

With RRIRHRPPRLPRPRPRPPRIPRP, the “shrunken log2 fold change” value amounted to 0.0175.

With RRIRTRPPRLPRPRPRPRCTPRP, the “shrunken log2 fold change” value is -0.00178.

Take RRIRWRPPRLPRPRPRPVHRPRP: the “shrunken log2 fold change” value came to 0.181.

Consider RRIRMRPPRLPRPRPRPVMVPRP, for which the “shrunken log2 fold change” value came to 0.0724.

With RRIRFRPPRLPRPRPRPRKWPRP, the “shrunken log2 fold change” value is 0.498.

Turning to RRIRARPPRLPRPRPRPFRCPRP, the “shrunken log2 fold change” value is -0.0823.

As for RRIRIRPPRLPRPRPRPWLNPRP, the “shrunken log2 fold change” value was -0.562.

Regarding RRIRDRPPRLPRPRPRPVSKPRP, the “shrunken log2 fold change” value came out at 0.0275.

With RRIRNRPPRLPRPRPRPGNEPRP, the “shrunken log2 fold change” value was -0.223.

For the sequence RRIRMRPPRLPRPRPRPKLEPRP, the “shrunken log2 fold change” value is 1.14.

For RRIRARPPRLPRPRPRPILIPRP, the “shrunken log2 fold change” value was -0.374.

Consider RRIRRRPPRLPRPRPRPIQMPRP, for which the “shrunken log2 fold change” value was found to be 0.272.

As to RRIRDRPPRLPRPRPRPDMLPRP, the “shrunken log2 fold change” value was 0.00888.

With RRIRHRPPRLPRPRPRPGDVPRP, the “shrunken log2 fold change” value is -0.16.

With RRIRFRPPRLPRPRPRPSADPRP, the “shrunken log2 fold change” value worked out at 0.157.

Consider RRIRGRPPRLPRPRPRPASGPRP, for which the “shrunken log2 fold change” value is 0.625.

Regarding RRIRWRPPRLPRPRPRPDGWPRP, the “shrunken log2 fold change” value was 1.12.

Take RRIRWRPPRLPRPRPRPLAVPRP: the “shrunken log2 fold change” value stood at 0.541.

Turning to RRIRHRPPRLPRPRPRPMYIPRP, the “shrunken log2 fold change” value was -0.0294.

Turning to RRIRWRPPRLPRPRPRPNDIPRP, the “shrunken log2 fold change” value was -0.565.

Consider RRIRMRPPRLPRPRPRPGIRPRP, for which the “shrunken log2 fold change” value turned out to be 0.253.

Take RRIRKRPPRLPRPRPRPPRGPRP: the “shrunken log2 fold change” value amounted to 1.13.

RRIRRRPPRLPRPRPRPQIGPRP: the “shrunken log2 fold change” value is 0.164.

RRIRERPPRLPRPRPRPPFYPRP: the “shrunken log2 fold change” value is -0.367.

On to RRIRKRPPRLPRPRPRPCNYPRP, for which the “shrunken log2 fold change” value was -0.0312.

For RRIRHRPPRLPRPRPRPPFTPRP, the “shrunken log2 fold change” value was -0.176.

For the sequence RRIRFRPPRLPRPRPRPFAIPRP, the “shrunken log2 fold change” value is -0.109.

For the sequence RRIRNRPPRLPRPRPRPGDDPRP, the “shrunken log2 fold change” value turned out to be 0.0116.

As for RRIRARPPRLPRPRPRPEWFPRP, the “shrunken log2 fold change” value was 0.0641.

For the sequence RRIRERPPRLPRPRPRPDRLPRP, the “shrunken log2 fold change” value was -0.147.

On to RRIRLRPPRLPRPRPRPEKDPRP, for which the “shrunken log2 fold change” value stood at 0.191.

With RRIRLRPPRLPRPRPRPCLIPRP, the “shrunken log2 fold change” value was -0.0321.

Consider RRIRERPPRLPRPRPRPYGCPRP, for which the “shrunken log2 fold change” value is -0.105.

On to RRIRERPPRLPRPRPRPCFYPRP, for which the “shrunken log2 fold change” value was -0.43.

For the sequence RRIRCRPPRLPRPRPRPNNYPRP, the “shrunken log2 fold change” value was -0.81.

For the sequence RRIRTRPPRLPRPRPRPQNEPRP, the “shrunken log2 fold change” value is -0.276.

In the case of RRIRWRPPRLPRPRPRPAWVPRP, the “shrunken log2 fold change” value was 0.378.

On to RRIRCRPPRLPRPRPRPAYDPRP, for which the “shrunken log2 fold change” value worked out at 0.0664.

As to RRIRTRPPRLPRPRPRPSARPRP, the “shrunken log2 fold change” value stood at 0.0995.

As to RRIRLRPPRLPRPRPRPKSIPRP, the “shrunken log2 fold change” value was -0.189.

Regarding RRIRLRPPRLPRPRPRPTDFPRP, the “shrunken log2 fold change” value is -0.0399.

Take RRIRERPPRLPRPRPRPKGHPRP: the “shrunken log2 fold change” value came out at 0.092.

Consider RRIRTRPPRLPRPRPRPLVYPRP, for which the “shrunken log2 fold change” value is -0.917.

For RRIRNRPPRLPRPRPRPHHLPRP, the “shrunken log2 fold change” value is -0.427.

RRIRYRPPRLPRPRPRPACSPRP: the “shrunken log2 fold change” value is -0.447.
